Earlier results, collected in patent US20170319567A1, “Use of CCR3-Inhibitors” (Alkahest, Inc., priority 2013, published 2017).

System: eosinophils
Settings: EoE patients, anti IL-5 therapy

B1: Mepolizumab: anti IL-5 antibody (antibody, chains of the INN, looked up, V domains shown)
VH: QVTLRESGPALVKPTQTLTLTCTVSGFSLTSYSVHWVRQPPGKGLEWLGVIWASGGTDYNSALMSRLSISKDTSRNQVVLTMTNMDPVDTATYYCARDPPSSLLRLDYWGRGTPVTVSS
VL: DIVMTQSPDSLAVSLGERATINCKSSQSLLNSGNQKNYLAWYQQKPGQPPKLLIYGASTRESGVPDRFSGSGSGTDFTLTISSLQAEDVAVYYCQNVHSFPFTFGGGTKLEIK
lowering of peripheral eosinophils: 5 fold
reduction in biopsy eosinophils: 2 fold
